One assay has as its target GxtA. The assay is described as follows: crystal structure; GxtA crystallised anaerobically, hanging drop, 0.3 M MgCl2, 0.1 M Bis-Tris pH 5.5, 25% PEG3350, 15% glycerol, 20 °C; without and with 20 mM ddSTX; three molecules in the asymmetric unit.
Another assay has as its target SxtT. The assay is described as follows: crystal structure; SxtT crystallised anaerobically, hanging drop, 2.0 M (NH4)2SO4, 0.1 M Bis-Tris pH 6.5, 10% glycerol, 20 °C; without and with 20 mM ddSTX; three molecules in the asymmetric unit.

GxtA (enzyme) had a stoichiometry N with GxtA of 3.
Take SxtT (enzyme): in the assay with SxtT, the stoichiometry N is 3.

As a reminder, the stoichiometry N is a count of units in the complex or per binding partner.

Values taken from PMC7293229.
